Experimental data from US5871948A.

Substrate: NC(=O)c1ccc[n+]([C@@H]2O[C@H](COP(=O)(O)OP(=O)(O)OC[C@H]3O[C@@H](n4cnc5c(N)ncnc54)[C@H](OP(=O)(O)O)[C@@H]3O)[C@@H](O)[C@H]2O)c1
Assay: purified protein, by the assay type

B1: thermostable isocitrate dehydrogenase (iCDH) purified from Sulfolobus acidocaldarius DSM 639, FERM BP-5567 (Sulfolobus acidocaldarius DSM 639) (protein)
chain: MVMLYKEPQDGEPIKFEKGKWVVPNKPIILYIEGDGIGPEITNSAIRVVNKAVEKAYKSSREIKWLEVYAGEKANKITGDRFPKETQDMLLKYRVVLKGPLETPIGKGWKSINVAIRLMLDLYANIRPVKYIEGLESPLKHPEKVDMIIFRENTDDLYRGIEFPYDSEEAKKIRKFLREELKVDIEDDTGIGLKVMSKFKTQRITRLALNYALQNSRKKVTVMHKGNVMKYTEGSFREWAYEVALNEYRDKIVTEEEINRGVNSEGKVILNDRIADNMLQQIIIRPDEYDIILAPNVNGDYISDAAGALIGNIGMLGGANIGDTGGMFEAIHGTAPKYAGKNVANPTGIIKSCELMLYFMGWSEAARLIEKAINESIKQKKVTQDIARYLGITPLGTKEYTDTLVQIMDSF
Km (other: pH 8.6, 37° C., pH 8.6): 66 µM
Km (other: pH 9.5, 37° C., pH 9.5): 42 µM
Km (other: pH 10.0, 37° C., pH 10.0): 48 µM
